Laboratory results reported in patent US20150344570A1 (published 2015).

T1: FcγRIIb (human, UniProt P31994 43-217)
T1 construct: extracellular domain; also called 2b; not shown: His tag at the C terminus
T1 sequence (looked up): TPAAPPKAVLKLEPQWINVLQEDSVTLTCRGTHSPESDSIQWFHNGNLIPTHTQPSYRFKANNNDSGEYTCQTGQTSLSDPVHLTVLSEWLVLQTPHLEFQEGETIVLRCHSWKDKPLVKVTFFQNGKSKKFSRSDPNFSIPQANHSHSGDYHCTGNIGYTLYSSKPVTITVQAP

T2: FcγRIIa H (human, UniProt P12318 34-217)
T2 construct: extracellular domain; also called FcγRIIa type H; 2aH; not shown: His tag at the C terminus
T2 sequence (looked up): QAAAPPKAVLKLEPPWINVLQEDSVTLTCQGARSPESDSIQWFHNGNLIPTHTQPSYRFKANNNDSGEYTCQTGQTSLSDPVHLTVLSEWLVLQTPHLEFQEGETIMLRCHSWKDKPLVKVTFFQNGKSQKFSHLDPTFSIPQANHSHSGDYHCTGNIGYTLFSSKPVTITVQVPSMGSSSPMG


What was measured:
FcγRIIb = target: T1, FcγRIIb; assay: SPR (Biacore), antibody captured, FcγR as analyte; binding relative to GpH7-A5/GpH7-B3/GpL16-k0 = 100
Experimental: (§1) The heterodimerized antibodies He Abs in which one of the H chains was introduced with an alteration were assayed for their binding activities to each activating FcγR and inhibitory FcγR according to the method described in Example 4. […] The activating FcγRs in FIGS. 26, 27, 28, and 29 are FcγRIa, FcγRIIa (R), FcγRIIa (H), and FcγRIIIa, respectively.
(§2) Analysis of interaction between objective antibody and the FcγR was carried out using Biacore T100 (GE Healthcare). HBS-EP+ (GE Healthcare) was used as the running buffer, and the measurement temperature was set to 25° C. Chips produced by immobilizing the antigen peptide by the amine coupling method to a Series S Sencor Chip CM5 (GE Healthcare), or alternatively, chips produced by allowing preliminarily biotinylated antigen peptides to interact with and immobilize onto a Series S Sensor Chip SA (certified) (GE Healthcare) were used. Antibodies of interest were captured onto an antigen peptide-immobilized chip, and allowed to interact to each FcγR diluted with running buffer. To regenerate and repeatedly use the chip, the antibodies captured on the chip were washed off by reacting 10 mM glycine-HCl, pH 1.5.

FcγRIIa H = target: T2, FcγRIIa H; assay: as above
Experimental: as §1, §2

| He/Con_2b (FcγRIIb) | He/Con_2aH (FcγRIIa H) | Binder |
| --- | --- | --- |
| 80.7 % of control | 105 % of control | GpH7-A5/GpH7-B3 variant I332_03V/GpL16-k0 (antibody, human IgG1, kappa, Heterodimerized IgG1; mutation in the GpH7-B3 chain only; also called He Ab) heavy 1: not shown heavy 2: not shown light: DIVMTQSPLSLPVTPGEPASISCQASESLVHSNRNTYLHWYLQKPGQSPQLLIYKVSNRFSGVPDRFSGSGSGTDFTLKISRVEAEDVGVYYCSQNTHVPPTFGQGTKVEIERTVAAPSVFIFPPSDEQLKSGTASVVCLLNNFYPREAKVQWKVDNALQSGNSQESVTEQDSKDSTYSLSSTLTLSKADYEKHKVYACEVTHQGLSSPVTKSFNRGEC |
| 97.6 % of control | 103 % of control | GpH7-A5/GpH7-B3 variant I336_18N/GpL16-k0 (antibody, human IgG1, kappa, Heterodimerized IgG1; mutation in the GpH7-B3 chain only; also called He Ab) heavy 1: not shown heavy 2: not shown light: DIVMTQSPLSLPVTPGEPASISCQASESLVHSNRNTYLHWYLQKPGQSPQLLIYKVSNRFSGVPDRFSGSGSGTDFTLKISRVEAEDVGVYYCSQNTHVPPTFGQGTKVEIERTVAAPSVFIFPPSDEQLKSGTASVVCLLNNFYPREAKVQWKVDNALQSGNSQESVTEQDSKDSTYSLSSTLTLSKADYEKHKVYACEVTHQGLSSPVTKSFNRGEC |
| 84.3 % of control | 102 % of control | GpH7-A5/GpH7-B3 variant Q295_07I/GpL16-k0 (antibody, human IgG1, kappa, Heterodimerized IgG1; mutation in the GpH7-B3 chain only; also called He Ab) heavy 1: not shown heavy 2: not shown light: DIVMTQSPLSLPVTPGEPASISCQASESLVHSNRNTYLHWYLQKPGQSPQLLIYKVSNRFSGVPDRFSGSGSGTDFTLKISRVEAEDVGVYYCSQNTHVPPTFGQGTKVEIERTVAAPSVFIFPPSDEQLKSGTASVVCLLNNFYPREAKVQWKVDNALQSGNSQESVTEQDSKDSTYSLSSTLTLSKADYEKHKVYACEVTHQGLSSPVTKSFNRGEC |
| 89.8 % of control | 102 % of control | GpH7-A5/GpH7-B3 variant I336_10E/GpL16-k0 (antibody, human IgG1, kappa, Heterodimerized IgG1; mutation in the GpH7-B3 chain only; also called He Ab) heavy 1: not shown heavy 2: not shown light: DIVMTQSPLSLPVTPGEPASISCQASESLVHSNRNTYLHWYLQKPGQSPQLLIYKVSNRFSGVPDRFSGSGSGTDFTLKISRVEAEDVGVYYCSQNTHVPPTFGQGTKVEIERTVAAPSVFIFPPSDEQLKSGTASVVCLLNNFYPREAKVQWKVDNALQSGNSQESVTEQDSKDSTYSLSSTLTLSKADYEKHKVYACEVTHQGLSSPVTKSFNRGEC |
| 89.1 % of control | 101 % of control | GpH7-A5/GpH7-B3 variant S324_04F/GpL16-k0 (antibody, human IgG1, kappa, Heterodimerized IgG1; mutation in the GpH7-B3 chain only; also called He Ab) heavy 1: not shown heavy 2: not shown light: DIVMTQSPLSLPVTPGEPASISCQASESLVHSNRNTYLHWYLQKPGQSPQLLIYKVSNRFSGVPDRFSGSGSGTDFTLKISRVEAEDVGVYYCSQNTHVPPTFGQGTKVEIERTVAAPSVFIFPPSDEQLKSGTASVVCLLNNFYPREAKVQWKVDNALQSGNSQESVTEQDSKDSTYSLSSTLTLSKADYEKHKVYACEVTHQGLSSPVTKSFNRGEC |
| 87.5 % of control | 103 % of control | GpH7-A5/GpH7-B3 variant S324_20W/GpL16-k0 (antibody, human IgG1, kappa, Heterodimerized IgG1; mutation in the GpH7-B3 chain only; also called He Ab) heavy 1: not shown heavy 2: not shown light: DIVMTQSPLSLPVTPGEPASISCQASESLVHSNRNTYLHWYLQKPGQSPQLLIYKVSNRFSGVPDRFSGSGSGTDFTLKISRVEAEDVGVYYCSQNTHVPPTFGQGTKVEIERTVAAPSVFIFPPSDEQLKSGTASVVCLLNNFYPREAKVQWKVDNALQSGNSQESVTEQDSKDSTYSLSSTLTLSKADYEKHKVYACEVTHQGLSSPVTKSFNRGEC |
| 89.9 % of control | 110 % of control | GpH7-A5/GpH7-B3 variant I332_18N/GpL16-k0 (antibody, human IgG1, kappa, Heterodimerized IgG1; mutation in the GpH7-B3 chain only; also called He Ab) heavy 1: not shown heavy 2: not shown light: DIVMTQSPLSLPVTPGEPASISCQASESLVHSNRNTYLHWYLQKPGQSPQLLIYKVSNRFSGVPDRFSGSGSGTDFTLKISRVEAEDVGVYYCSQNTHVPPTFGQGTKVEIERTVAAPSVFIFPPSDEQLKSGTASVVCLLNNFYPREAKVQWKVDNALQSGNSQESVTEQDSKDSTYSLSSTLTLSKADYEKHKVYACEVTHQGLSSPVTKSFNRGEC |
| 88.2 % of control | 102 % of control | GpH7-A5/GpH7-B3 variant S324_15Y/GpL16-k0 (antibody, human IgG1, kappa, Heterodimerized IgG1; mutation in the GpH7-B3 chain only; also called He Ab) heavy 1: not shown heavy 2: not shown light: DIVMTQSPLSLPVTPGEPASISCQASESLVHSNRNTYLHWYLQKPGQSPQLLIYKVSNRFSGVPDRFSGSGSGTDFTLKISRVEAEDVGVYYCSQNTHVPPTFGQGTKVEIERTVAAPSVFIFPPSDEQLKSGTASVVCLLNNFYPREAKVQWKVDNALQSGNSQESVTEQDSKDSTYSLSSTLTLSKADYEKHKVYACEVTHQGLSSPVTKSFNRGEC |
| 85.8 % of control | 106 % of control | GpH7-A5/GpH7-B3 variant S324_09D/GpL16-k0 (antibody, human IgG1, kappa, Heterodimerized IgG1; mutation in the GpH7-B3 chain only; also called He Ab) heavy 1: not shown heavy 2: not shown light: DIVMTQSPLSLPVTPGEPASISCQASESLVHSNRNTYLHWYLQKPGQSPQLLIYKVSNRFSGVPDRFSGSGSGTDFTLKISRVEAEDVGVYYCSQNTHVPPTFGQGTKVEIERTVAAPSVFIFPPSDEQLKSGTASVVCLLNNFYPREAKVQWKVDNALQSGNSQESVTEQDSKDSTYSLSSTLTLSKADYEKHKVYACEVTHQGLSSPVTKSFNRGEC |
